Here are results for 125 sequences from the supplement of paper PMC9112550, “Optimization of the antimicrobial peptide Bac7 by deep mutational scanning” (BMC Biology, 2022).
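Further: peptides expressed intracellularly from a pBAD plasmid library in pooled LB shake-flask culture, induced with 0.3% L-arabinose, DNA abundance read by NGS, three biological replicates, DESeq2 with apeglm shrinkage.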

This series has as its system Escherichia coli TOP10. The experiment in a line: shrunken log2 fold change of peptide-encoding DNA abundance (4.5 h post-induction vs induction); higher = less antimicrobial activity (less host growth inhibition). The conditions noted are these: time post-induction: 4.5 h; library: site-saturation at positions 5, 18, 19, 20.
Turning to RRIRMRPPRLPRPRPRPEADPRP, the “shrunken log2 fold change” value was 0.136.

RRIRCRPPRLPRPRPRPKIEPRP: the “shrunken log2 fold change” value is -0.0736.

With RRIRVRPPRLPRPRPRPSFAPRP, the “shrunken log2 fold change” value turned out to be 0.0593.

Consider RRIRARPPRLPRPRPRPSPKPRP, for which the “shrunken log2 fold change” value is 0.303.

As to RRIRRRPPRLPRPRPRPEMVPRP, the “shrunken log2 fold change” value turned out to be 0.0411.

For RRIRARPPRLPRPRPRPQTEPRP, the “shrunken log2 fold change” value was determined as 0.292.

With RRIRWRPPRLPRPRPRPQLPPRP, the “shrunken log2 fold change” value is -0.00654.

Turning to RRIRRRPPRLPRPRPRPMVDPRP, the “shrunken log2 fold change” value is 0.0808.

As to RRIRMRPPRLPRPRPRPPCNPRP, the “shrunken log2 fold change” value was found to be 0.0147.

For RRIRGRPPRLPRPRPRPMYAPRP, the “shrunken log2 fold change” value came out at 0.706.

In the case of RRIRIRPPRLPRPRPRPHDKPRP, the “shrunken log2 fold change” value is -0.74.

As to RRIRERPPRLPRPRPRPNNRPRP, the “shrunken log2 fold change” value is -0.315.

With RRIRARPPRLPRPRPRPHKYPRP, the “shrunken log2 fold change” value is -0.243.

In the case of RRIRWRPPRLPRPRPRPPLYPRP, the “shrunken log2 fold change” value stood at 0.188.

Turning to RRIRRRPPRLPRPRPRPIYWPRP, the “shrunken log2 fold change” value turned out to be 0.08.

As for RRIRERPPRLPRPRPRPCAVPRP, the “shrunken log2 fold change” value was -0.0406.

For the sequence RRIRFRPPRLPRPRPRPCMCPRP, the “shrunken log2 fold change” value was -0.544.

Consider RRIRDRPPRLPRPRPRPYGIPRP, for which the “shrunken log2 fold change” value was -0.00973.

For RRIRRRPPRLPRPRPRPVFRPRP, the “shrunken log2 fold change” value turned out to be 0.226.

As to RRIRIRPPRLPRPRPRPNLAPRP, the “shrunken log2 fold change” value is -0.114.

In the case of RRIRCRPPRLPRPRPRPWLMPRP, the “shrunken log2 fold change” value was -0.159.

On to RRIRLRPPRLPRPRPRPWPAPRP, for which the “shrunken log2 fold change” value stood at 0.0194.

For the sequence RRIRNRPPRLPRPRPRPFVTPRP, the “shrunken log2 fold change” value was -0.274.

With RRIRFRPPRLPRPRPRPMNYPRP, the “shrunken log2 fold change” value is -0.582.

RRIRWRPPRLPRPRPRPKSGPRP: the “shrunken log2 fold change” value was -0.0248.

In the case of RRIRMRPPRLPRPRPRPGANPRP, the “shrunken log2 fold change” value was determined as 1.17.

For RRIRRRPPRLPRPRPRPEVLPRP, the “shrunken log2 fold change” value turned out to be 0.211.

For the sequence RRIRNRPPRLPRPRPRPRVSPRP, the “shrunken log2 fold change” value amounted to 0.0988.

For RRIRYRPPRLPRPRPRPVRMPRP, the “shrunken log2 fold change” value was -0.246.

In the case of RRIRLRPPRLPRPRPRPTYPPRP, the “shrunken log2 fold change” value was determined as 0.0515.

As for RRIRMRPPRLPRPRPRPFEYPRP, the “shrunken log2 fold change” value is -0.219.

For RRIRDRPPRLPRPRPRPQYSPRP, the “shrunken log2 fold change” value is -0.028.

For RRIRIRPPRLPRPRPRPLPIPRP, the “shrunken log2 fold change” value is -0.0341.

As to RRIRARPPRLPRPRPRPKRQPRP, the “shrunken log2 fold change” value was determined as 0.0749.

Take RRIRWRPPRLPRPRPRPMWIPRP: the “shrunken log2 fold change” value was 0.135.

For the sequence RRIRWRPPRLPRPRPRPQSFPRP, the “shrunken log2 fold change” value is -0.108.

Turning to RRIRMRPPRLPRPRPRPNILPRP, the “shrunken log2 fold change” value is 0.057.

Regarding RRIRHRPPRLPRPRPRPVDCPRP, the “shrunken log2 fold change” value was -0.0119.

With RRIRIRPPRLPRPRPRPDEPPRP, the “shrunken log2 fold change” value was found to be 0.115.

Turning to RRIRMRPPRLPRPRPRPMSSPRP, the “shrunken log2 fold change” value came to 0.0418.

Turning to RRIRGRPPRLPRPRPRPEEAPRP, the “shrunken log2 fold change” value worked out at 2.32.

Turning to RRIRMRPPRLPRPRPRPVRPPRP, the “shrunken log2 fold change” value was determined as 1.76.

On to RRIRRRPPRLPRPRPRPTWLPRP, for which the “shrunken log2 fold change” value is 0.633.

Turning to RRIRKRPPRLPRPRPRPAFAPRP, the “shrunken log2 fold change” value worked out at 0.647.

For the sequence RRIRERPPRLPRPRPRPAPAPRP, the “shrunken log2 fold change” value was 0.305.

As for RRIRLRPPRLPRPRPRPDHDPRP, the “shrunken log2 fold change” value was -0.0947.

RRIRLRPPRLPRPRPRPPGRPRP: the “shrunken log2 fold change” value stood at 0.66.

Take RRIRLRPPRLPRPRPRPPVYPRP: the “shrunken log2 fold change” value stood at 0.0309.

On to RRIRKRPPRLPRPRPRPWAAPRP, for which the “shrunken log2 fold change” value worked out at 0.473.

For the sequence RRIRVRPPRLPRPRPRPMGRPRP, the “shrunken log2 fold change” value was -0.0203.

Turning to RRIRRRPPRLPRPRPRPYAGPRP, the “shrunken log2 fold change” value is -0.137.

As for RRIRWRPPRLPRPRPRPMRFPRP, the “shrunken log2 fold change” value turned out to be 0.00175.

On to RRIRCRPPRLPRPRPRPSDTPRP, for which the “shrunken log2 fold change” value was -0.134.

As to RRIRVRPPRLPRPRPRPWLVPRP, the “shrunken log2 fold change” value is 0.128.

With RRIRIRPPRLPRPRPRPDRKPRP, the “shrunken log2 fold change” value is -0.0167.

For RRIRDRPPRLPRPRPRPYVMPRP, the “shrunken log2 fold change” value is -0.342.

Turning to RRIRHRPPRLPRPRPRPQFQPRP, the “shrunken log2 fold change” value was -0.511.

In the case of RRIRFRPPRLPRPRPRPQPEPRP, the “shrunken log2 fold change” value is -0.119.

With RRIRCRPPRLPRPRPRPFGVPRP, the “shrunken log2 fold change” value is -0.0152.

With RRIRYRPPRLPRPRPRPFTDPRP, the “shrunken log2 fold change” value was -0.583.

Regarding RRIRGRPPRLPRPRPRPWNDPRP, the “shrunken log2 fold change” value is -0.222.

With RRIRPRPPRLPRPRPRPYMYPRP, the “shrunken log2 fold change” value was -0.634.

Take RRIRQRPPRLPRPRPRPCVYPRP: the “shrunken log2 fold change” value stood at 4.4.

For the sequence RRIRRRPPRLPRPRPRPCVHPRP, the “shrunken log2 fold change” value is -0.0733.

As for RRIRLRPPRLPRPRPRPAMLPRP, the “shrunken log2 fold change” value was -0.0377.

As to RRIRLRPPRLPRPRPRPQSFPRP, the “shrunken log2 fold change” value was -0.0139.

As to RRIRSRPPRLPRPRPRPVWEPRP, the “shrunken log2 fold change” value worked out at 0.118.

On to RRIRFRPPRLPRPRPRPMADPRP, for which the “shrunken log2 fold change” value is -0.00574.

RRIRIRPPRLPRPRPRPALFPRP: the “shrunken log2 fold change” value was -0.139.

For RRIRERPPRLPRPRPRPERTPRP, the “shrunken log2 fold change” value was 0.0163.

RRIRERPPRLPRPRPRPWDGPRP: the “shrunken log2 fold change” value worked out at 0.421.

RRIRKRPPRLPRPRPRPDGWPRP: the “shrunken log2 fold change” value is 0.152.

As to RRIRTRPPRLPRPRPRPTMTPRP, the “shrunken log2 fold change” value was -0.0413.

With RRIRERPPRLPRPRPRPNSVPRP, the “shrunken log2 fold change” value was 0.0407.

As for RRIRRRPPRLPRPRPRPHPYPRP, the “shrunken log2 fold change” value was -0.069.

For the sequence RRIRLRPPRLPRPRPRPRKLPRP, the “shrunken log2 fold change” value is -0.0264.

Consider RRIRYRPPRLPRPRPRPVWNPRP, for which the “shrunken log2 fold change” value was -0.136.

For the sequence RRIRDRPPRLPRPRPRPRVDPRP, the “shrunken log2 fold change” value is 0.325.

As for RRIRERPPRLPRPRPRPSREPRP, the “shrunken log2 fold change” value was 0.125.

As for RRIRNRPPRLPRPRPRPWSVPRP, the “shrunken log2 fold change” value is -0.328.

In the case of RRIRGRPPRLPRPRPRPEQYPRP, the “shrunken log2 fold change” value was -0.183.

As to RRIRARPPRLPRPRPRPNNHPRP, the “shrunken log2 fold change” value was -0.381.

Regarding RRIRWRPPRLPRPRPRPWWQPRP, the “shrunken log2 fold change” value is 0.16.

As for RRIRRRPPRLPRPRPRPGPLPRP, the “shrunken log2 fold change” value is 0.415.

In the case of RRIRLRPPRLPRPRPRPDQMPRP, the “shrunken log2 fold change” value is -0.0132.

RRIRFRPPRLPRPRPRPKPWPRP: the “shrunken log2 fold change” value was 0.489.

For the sequence RRIRTRPPRLPRPRPRPAQRPRP, the “shrunken log2 fold change” value amounted to 0.356.

Take RRIRLRPPRLPRPRPRPNPCPRP: the “shrunken log2 fold change” value was -0.398.

On to RRIRGRPPRLPRPRPRPDDTPRP, for which the “shrunken log2 fold change” value worked out at 0.944.

For RRIRKRPPRLPRPRPRPRMEPRP, the “shrunken log2 fold change” value is 0.0104.

In the case of RRIRSRPPRLPRPRPRPYLMPRP, the “shrunken log2 fold change” value is -0.566.

As for RRIRKRPPRLPRPRPRPYYYPRP, the “shrunken log2 fold change” value was -0.704.

Turning to RRIRERPPRLPRPRPRPTCVPRP, the “shrunken log2 fold change” value is -0.0193.

For RRIRYRPPRLPRPRPRPKVHPRP, the “shrunken log2 fold change” value is -0.677.

With RRIRWRPPRLPRPRPRPMENPRP, the “shrunken log2 fold change” value is 0.0913.

Turning to RRIRERPPRLPRPRPRPPVGPRP, the “shrunken log2 fold change” value turned out to be 0.0345.

As for RRIRIRPPRLPRPRPRPLFQPRP, the “shrunken log2 fold change” value is -0.394.

On to RRIRDRPPRLPRPRPRPNMSPRP, for which the “shrunken log2 fold change” value is -0.0444.

With RRIRKRPPRLPRPRPRPYLSPRP, the “shrunken log2 fold change” value was -0.119.

As for RRIRYRPPRLPRPRPRPGNMPRP, the “shrunken log2 fold change” value was -0.55.

For RRIRARPPRLPRPRPRPTNQPRP, the “shrunken log2 fold change” value turned out to be 0.153.

As to RRIRQRPPRLPRPRPRPLKFPRP, the “shrunken log2 fold change” value is -0.27.

For RRIRYRPPRLPRPRPRPIRPPRP, the “shrunken log2 fold change” value was -0.129.

Turning to RRIRLRPPRLPRPRPRPDPGPRP, the “shrunken log2 fold change” value is -0.146.

On to RRIRSRPPRLPRPRPRPRADPRP, for which the “shrunken log2 fold change” value is 0.387.

Take RRIRTRPPRLPRPRPRPMVWPRP: the “shrunken log2 fold change” value came to 0.57.

For RRIRFRPPRLPRPRPRPWPWPRP, the “shrunken log2 fold change” value is -0.00192.

On to RRIRDRPPRLPRPRPRPAPTPRP, for which the “shrunken log2 fold change” value is 0.684.

RRIRFRPPRLPRPRPRPNINPRP: the “shrunken log2 fold change” value is -0.536.

As to RRIRRRPPRLPRPRPRPRHWPRP, the “shrunken log2 fold change” value amounted to 0.551.

For RRIRMRPPRLPRPRPRPHCTPRP, the “shrunken log2 fold change” value was -0.147.

Consider RRIRHRPPRLPRPRPRPNVYPRP, for which the “shrunken log2 fold change” value was -0.149.

As to RRIRARPPRLPRPRPRPFMEPRP, the “shrunken log2 fold change” value stood at 0.0746.

Regarding RRIRCRPPRLPRPRPRPKFAPRP, the “shrunken log2 fold change” value was determined as 0.0822.

As to RRIRCRPPRLPRPRPRPLRDPRP, the “shrunken log2 fold change” value was found to be 0.948.

With RRIRWRPPRLPRPRPRPRMGPRP, the “shrunken log2 fold change” value was 0.357.

On to RRIRQRPPRLPRPRPRPIFDPRP, for which the “shrunken log2 fold change” value is -0.0877.

As to RRIRGRPPRLPRPRPRPTWFPRP, the “shrunken log2 fold change” value was determined as 0.281.

For the sequence RRIRCRPPRLPRPRPRPMVMPRP, the “shrunken log2 fold change” value amounted to 0.0583.

As for RRIRQRPPRLPRPRPRPGWLPRP, the “shrunken log2 fold change” value was 0.193.

Turning to RRIRNRPPRLPRPRPRPFAWPRP, the “shrunken log2 fold change” value came to 0.0341.

As to RRIRTRPPRLPRPRPRPGNNPRP, the “shrunken log2 fold change” value was -0.14.

On to RRIRNRPPRLPRPRPRPEYDPRP, for which the “shrunken log2 fold change” value is -0.0369.

Take RRIRTRPPRLPRPRPRPHCKPRP: the “shrunken log2 fold change” value is -0.222.

RRIRARPPRLPRPRPRPKHIPRP: the “shrunken log2 fold change” value is -0.219.
